Reference: US20160355591A1
Read-outs that look alike come from different tables or passages of the source.

Experiments:
human serum complement [1] = experiment: cell-based or functional assay
[2] = molecular target: T1, CD20 on human cells (human) (UniProt P11836); experiment: indirect flow cytometry, Namalwa cells, FITC-GAH 2nd Ab; none 2.52
T1 sequence (looked up): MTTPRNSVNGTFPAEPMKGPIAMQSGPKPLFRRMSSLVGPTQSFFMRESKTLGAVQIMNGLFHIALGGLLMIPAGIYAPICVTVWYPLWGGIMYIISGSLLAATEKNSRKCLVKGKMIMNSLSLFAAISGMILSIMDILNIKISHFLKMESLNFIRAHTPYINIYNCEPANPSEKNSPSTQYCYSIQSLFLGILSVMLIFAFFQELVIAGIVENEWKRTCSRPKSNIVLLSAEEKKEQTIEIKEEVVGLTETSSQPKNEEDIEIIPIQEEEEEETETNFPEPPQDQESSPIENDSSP

human serum complement [3] = experiment: cell-based or functional assay; remark: listed apart in the source
[4] = molecular target: T1, CD20 on human cells (human); experiment: indirect flow cytometry, WSU-FSCCL cells, FITC-GAH Fc 2nd Ab; none 2.7
[5] = molecular target: T1, CD20 on human cells (human); experiment: indirect flow cytometry, RL cells, FITC-GAH Fc 2nd Ab; none 2.4
[6] = molecular target: T1, CD20 on human cells (human); experiment: indirect FACS, Ramos cells, FITC-GAH Fc 2nd Ab; none 3.1
[7] = molecular target: T2, CD20 on dog lymphocytes and dog lymphoma cells (dog) (UniProt Q3C2E2); experiment: flow cytometry, dog lymphoma aspirate; none 4.48
T2 sequence (looked up): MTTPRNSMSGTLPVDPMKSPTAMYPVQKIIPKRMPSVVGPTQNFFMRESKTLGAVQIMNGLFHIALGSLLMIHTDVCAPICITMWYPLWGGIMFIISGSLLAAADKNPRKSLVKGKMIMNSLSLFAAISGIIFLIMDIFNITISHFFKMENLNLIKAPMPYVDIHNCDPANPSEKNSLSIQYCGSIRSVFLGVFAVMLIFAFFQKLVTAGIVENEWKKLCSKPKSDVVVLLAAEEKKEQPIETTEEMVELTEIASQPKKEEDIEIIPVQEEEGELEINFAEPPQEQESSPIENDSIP

[8] = molecular target: T1, CD20 on human cells (human); experiment: indirect flow cytometry, Namalwa cells, FITC-GAH Fc 2nd Ab; none 2.6
[9] = molecular target: T2, CD20 on dog lymphocytes and dog lymphoma cells (dog); experiment: flow cytometry, canine lymphoma aspirate 150836; none 4.5
[10] = molecular target: T1, CD20 on human cells (human); experiment: indirect FACS, Raji cells, FITC-GAH Fc 2nd Ab; none 6.8
[11] = molecular target: T1, CD20 on human cells (human); experiment: indirect flow cytometry, Ramos cells, FITC-GAH Fc 2nd Ab; none 3.1
[12] = molecular target: T2, CD20 on dog lymphocytes and dog lymphoma cells (dog); experiment: flow cytometry, dog lymphoma aspirate; none 3.24
[13] = molecular target: T1, CD20 on human cells (human); experiment: indirect flow cytometry, Daudi cells, FITC-GAH Fc 2nd Ab; none 3.2
[14] = molecular target: T1, CD20 on human cells (human); experiment: indirect FACS, Daudi cells, FITC-GAH Fc 2nd Ab; none 3.1
[15] = molecular target: T2, CD20 on dog lymphocytes and dog lymphoma cells (dog); experiment: flow cytometry, canine lymphoma aspirate 150836; none 3.2
[16] = molecular target: T1, CD20 on human cells (human); experiment: indirect FACS, SU-DHL-6 cells, FITC-GAH Fc 2nd Ab; none 4.6
[17] = molecular target: T1, CD20 on human cells (human); experiment: indirect FACS, Namalwa cells, FITC-GAH Fc 2nd Ab; none 2.5
[18] = molecular target: T1, CD20 on human cells (human); experiment: indirect flow cytometry, SU-DHL-6 cells, FITC-GAH Fc 2nd Ab; none 4.6
[19] = molecular target: T1, CD20 on human cells (human); experiment: indirect FACS, WSU-FSCCL cells, FITC-GAH Fc 2nd Ab; none 2.6
[20] = molecular target: T1, CD20 on human cells (human); experiment: indirect flow cytometry, Raji cells, FITC-GAH Fc 2nd Ab; none 6.9
[21] = molecular target: CD74 on human cells (human) (UniProt P04233); experiment: Kasumi-3 (AML) cells; no mAb 9.6
[22] = molecular target: CD74 on human cells (human) (UniProt P04233); experiment: 697 (ALL) cells; no mAb 4.9
[23] = molecular target: CD74 on human cells (human) (UniProt P04233); experiment: indirect flow cytometry, Namalwa cells, FITC-GAM 2nd Ab; none 2.91
[24] = molecular target: CD74 on human cells (human) (UniProt P04233); experiment: MEC-1 (CLL) cells; no mAb 4.7
[25] = molecular target: CD74 on human cells (human) (UniProt P04233); experiment: Kasumi-1 (AML) cells; no mAb 18.2
[26] = molecular target: CD74 on human cells (human) (UniProt P04233); experiment: RS4;11 (ALL) cells; no mAb 6.4
[27] = molecular target: CD74 on human cells (human) (UniProt P04233); experiment: HC-1 (hairy cell leukemia) cells; no mAb 4.8
[28] = molecular target: CD74 on dog lymphocytes and dog lymphoma cells (dog); experiment: flow cytometry, canine lymphoma aspirate 150836; none 3.9
[29] = molecular target: CD74 on human cells (human) (UniProt P04233); experiment: Jeko-1 (MCL) cells; no mAb 14.3
[30] = molecular target: CD74 on human cells (human) (UniProt P04233); experiment: K562 (CML) cells; no mAb 3.2
[31] = molecular target: CD74 on dog lymphocytes and dog lymphoma cells (dog); experiment: flow cytometry, dog lymphoma aspirate; none 3.85
[32] = molecular target: CD74 on dog lymphocytes and dog lymphoma cells (dog); experiment: flow cytometry, dog lymphoma aspirate; none 3.37
[33] = molecular target: CD74 on human cells (human) (UniProt P04233); experiment: MN60 (ALL) cells; no mAb 8.1
[34] = molecular target: CD74 on human cells (human) (UniProt P04233); experiment: WAC (CLL) cells; no mAb 15.8
[35] = molecular target: CD74 on dog lymphocytes and dog lymphoma cells (dog); experiment: flow cytometry, canine lymphoma aspirate 150836; none 3.4
[36] = molecular target: CD74 on human cells (human) (UniProt P04233); experiment: GDM-1 (AML) cells; no mAb 16.8
[37] = molecular target: CD74 on human cells (human) (UniProt P04233); experiment: Granta-519 (MCL) cells; no mAb 15.3
[38] = molecular target: CD74 on human cells (human) (UniProt P04233); experiment: REH (ALL) cells; no mAb 3.9
[39] = molecular target: HLA-DR (human leukocyte antigen-DR) on human lymphoma and leukemia cells and human lymphocytes (human); experiment: indirect flow cytometry, Namalwa cells, FITC-GAM 2nd Ab; none 2.91; control antibody (anti-CEA)

Chain of CD74 on human cells (human) (P04233 whole entry): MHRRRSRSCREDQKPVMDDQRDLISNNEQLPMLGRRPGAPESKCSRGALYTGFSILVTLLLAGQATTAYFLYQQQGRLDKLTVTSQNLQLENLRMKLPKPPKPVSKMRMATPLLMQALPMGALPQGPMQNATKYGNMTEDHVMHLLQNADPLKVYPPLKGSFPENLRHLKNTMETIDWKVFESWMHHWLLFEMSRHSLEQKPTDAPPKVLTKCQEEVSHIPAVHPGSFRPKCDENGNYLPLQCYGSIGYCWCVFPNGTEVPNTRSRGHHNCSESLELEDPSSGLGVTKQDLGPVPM

B1: hL243 (humanized L243 anti-HLA-DR antibody, IgG1/K isotype) (antibody, V domains shown)
VH: QVQLQQSGSELKKPGASVKVSCKASGFTFTNYGMNWVKQAPGQGLKWMGWINTYTREPTYADDFKGRFAFSLDTSVSTAYLQISSLKADDTAVYFCARDITAVVPTGFDYWGQGSLVTVSS
VL: DIQLTQSPSSLSASVGDRVTITCRASENIYSNLAWYRQKPGKAPKLLVFAASNLADGVPSRFSGSGSGTDYTFTISSLQPEDIATYYCQHFWTTPWAFGGGTKLQIKR
complement-mediated cytotoxic effect on Daudi cells (CDC, resazurin viability), EC50 (human serum complement [1]): 2.6 nM

B2: hA20 (veltuzumab, humanized anti-CD20 IgG1) (antibody, INN chains, looked up, V domains shown, part only)
VH: QVQLQQSGAEVKKPGSSVKVSCKASGYTFTSYNMHWVKQAPGQGLEWIGAIYPGMGDTSYNQKFKGKATLTADESTNTAYMELSSLRSEDTAFYYCARSTYYGGDWYFDVWGQGTTVTVSS
VL: DIQLTQSPSSLSASVGDRVTMTCRASSSVSYIHWFQQKPGKAPKPWIYATSNLASGVPVRFSGSGSGTDYTFTISSLQPEDIATYYCQQWTSNPPTFGGGTKLEIKR
geometric mean fluorescence [2]: 6.28
complement-mediated cytotoxic effect on Daudi cells (CDC, resazurin viability), EC50 (human serum complement [3]): 0.66 nM
geometric mean fluorescence [4]: 8.9
geometric mean fluorescence [5]: 128
geometric mean fluorescence [6]: 204
% Positive [7]: 3.96%
geometric mean fluorescence [8]: 10.1
% Positive [9]: 4%
geometric mean fluorescence [10]: 267
geometric mean fluorescence [11]: 204
mean FL [12]: 3.25
geometric mean fluorescence [13]: 241
geometric mean fluorescence [14]: 241
mean FL [15]: 3.3
geometric mean fluorescence [16]: 1200
geometric mean fluorescence [17]: 10.1
geometric mean fluorescence [18]: 1200
geometric mean fluorescence [19]: 8.91
geometric mean fluorescence [20]: 267

B3: LL1 (murine anti-human CD74 mAb) (antibody, from a related filing, V domains shown)
VH: QIQLVQSGPELKKPGETVKVTCKTSGYTFTNYGVNWIKQTPGEGLQWMGWINPNTGEPTFDDDFKGRFAFSLESSASTAFLQISNLKNEDMGTYFCSRSRGKNEAWFAYWGQGTLVTVSE
VL: DVVMTQTPLSLPVSLGDQASISCRSSQSLVHRNGNTYLHWYLQKPGQSPKLLIYTVSNRFSGVPDRFSGSGSGTDFTLKISRVEAEDLGLYFCSQSSHVPPTFGAGTKLEI
mean FL [21]: 18.4
mean FL [22]: 20.6
geometric mean fluorescence [23]: 17.3
mean FL [24]: 44.7
mean FL [25]: 23.8
mean FL [26]: 24.3
mean FL [27]: 36.7
% Positive [28]: 6.7%
mean FL [29]: 32.7
mean FL [30]: 7
% Positive [31]: 6.69%
mean FL [32]: 4.01
mean FL [33]: 25.9
mean FL [34]: 43.6
mean FL [35]: 4
mean FL [36]: 69.5
mean FL [37]: 50.8
mean FL [38]: 61.1

B4: MN-14 (murine anti-carcinoembryonic antigen mAb) (antibody, from a related filing, V domains shown)
VH: EVKLLESGGGLVQSGGSLKLSCAASGFDFTTYWMSWVRQAPGKGLEWIGEIHPDSSTINYAPSLKDKFIVSRDNAKNTLYLQMSKVRSEDTALYYCASLYFGFPWFAYWGQGTPVTVSA
VL: EIQLTQSHKMMSTSVGDRVSITCKASQDVGTSVAWYQQRPGQSPKLLIYWTSTRHTGVPDRFTGSVSGTDFTLTITNVQSEDLADYFCQQYSLYRSFGGGTKLEIK
geometric mean fluorescence [39]: 3.32
